Results as given in article PMC2691842 (Nucleic Acids Research, 2009).

Target: the molecule itself
Test: AUC

B1: C.Esp1396I controller (C) protein (natural protein, UniProt Q8GGH0 1-79, looked up)
chain: MESFLLSKVSFVIKKIRLEKGMTQEDLAYKSNLDRTYISGIERNSRNLTIKSLELIMKGLEVSDVVFFEMLIKEILKHD
  Kd: ~600 nM
  stoichiometry N: 2
